Reference: paper PMC2602784

Tests used:
Assay in all cases: EMSA
[1] = molecular target: T1, LldR R42A (Corynebacterium glutamicum ATCC 1332 …, UniProt Q8NLM6 1-231, R42A)
T1 sequence: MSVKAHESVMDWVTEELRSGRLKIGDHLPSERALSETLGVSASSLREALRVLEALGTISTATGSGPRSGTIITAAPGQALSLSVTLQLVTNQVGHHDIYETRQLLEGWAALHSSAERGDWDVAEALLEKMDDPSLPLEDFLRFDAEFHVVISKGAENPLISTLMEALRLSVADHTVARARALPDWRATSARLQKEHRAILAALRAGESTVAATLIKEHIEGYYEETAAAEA

[2] = molecular target: T2, LldR R32A (Corynebacterium glutamicum ATCC 1332 …, UniProt Q8NLM6 1-231, R32A)
T2 sequence: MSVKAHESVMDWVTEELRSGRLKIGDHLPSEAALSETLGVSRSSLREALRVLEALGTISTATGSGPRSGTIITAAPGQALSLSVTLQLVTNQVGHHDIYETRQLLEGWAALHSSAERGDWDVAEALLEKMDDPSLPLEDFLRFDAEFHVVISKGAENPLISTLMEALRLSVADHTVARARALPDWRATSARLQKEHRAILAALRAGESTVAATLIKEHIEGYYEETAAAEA

[3] = molecular target: T3, LldR G63A (Corynebacterium glutamicum ATCC 1332 …, UniProt Q8NLM6 1-231, G63A)
T3 sequence: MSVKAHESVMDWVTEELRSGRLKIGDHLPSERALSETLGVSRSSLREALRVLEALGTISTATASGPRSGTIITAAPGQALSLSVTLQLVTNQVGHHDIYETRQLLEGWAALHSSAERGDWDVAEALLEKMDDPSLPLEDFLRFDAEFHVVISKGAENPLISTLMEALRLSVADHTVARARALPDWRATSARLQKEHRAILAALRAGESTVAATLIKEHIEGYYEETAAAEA

[4] = molecular target: T4, LldR K4A (Corynebacterium glutamicum ATCC 1332 …, UniProt Q8NLM6 1-231, K4A)
T4 sequence: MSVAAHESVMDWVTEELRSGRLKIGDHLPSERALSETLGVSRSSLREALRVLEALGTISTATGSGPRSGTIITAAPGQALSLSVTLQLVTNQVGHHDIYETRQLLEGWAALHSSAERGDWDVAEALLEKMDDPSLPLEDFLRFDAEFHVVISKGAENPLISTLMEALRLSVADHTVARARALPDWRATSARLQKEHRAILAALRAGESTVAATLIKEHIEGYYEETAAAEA

Measured: binding result

B1: cgl2917-site1 (dsDNA)
DNA 1: TTGTGGTCTGACCATGA
DNA 2: TCATGGTCAGACCACAA
no binding: all assays above
